The labels stand for the following.
B1: α2M–mCherry–sfGFP–His (natural protein, human (cDNA from HepG2), UniProt P01023 24-1474, looked up)
chain: SVSGKPQYMVLVPSLLHTETTEKGCVLLSYLNETVTVSASLESVRGNRSLFTDLEAENDVLHCVAFAVPKSSSNEEVMFLTVQVKGPTQEFKKRTTVMVKNEDSLVFVQTDKSIYKPGQTVKFRVVSMDENFHPLNELIPLVYIQDPKGNRIAQWQSFQLEGGLKQFSFPLSSEPFQGSYKVVVQKKSGGRTEHPFTVEEFVLPKFEVQVTVPKIITILEEEMNVSVCGLYTYGKPVPGHVTVSICRKYSDASDCHGEDSQAFCEKFSGQLNSHGCFYQQVKTKVFQLKRKEYEMKLHTEAQIQEEGTVVELTGRQSSEITRTITKLSFVKVDSHFRQGIPFFGQVRLVDGKGVPIPNKVIFIRGNEANYYSNATTDEHGLVQFSINTTNVMGTSLTVRVNYKDRSPCYGYQWVSEEHEEAHHTAYLVFSPSKSFVHLEPMSHELPCGHTQTVQAHYILNGGTLLGLKKLSFYYLIMAKGGIVRTGTHGLLVKQEDMKGHFSISIPVKSDIAPVARLLIYAVLPTGDVIGDSAKYDVENCLANKVDLSFSPSQSLPASHAHLRVTAAPQSVCALRAVDQSVLLMKPDAELSASSVYNLLPEKDLTGFPGPLNDQDNEDCINRHNVYINGITYTPVSSTNEKDMYSFLEDMGLKAFTNSKIRKPKMCPQLQQYEMHGPEGLRVGFYESDVMGRGHARLVHVEEPHTETVRKYFPETWIWDLVVVNSAGVAEVGVTVPDTITEWKAGAFCLSEDAGLGISSTASLRAFQPFFVELTMPYSVIRGEAFTLKATVLNYLPKCIRVSVQLEASPAFLAVPVEKEQAPHCICANGRQTVSWAVTPKSLGNVNFTVSAEALESQELCGTEVPSVPEHGRKDTVIKPLLVEPEGLEKETTFNSLLCPSGGEVSEELSLKLPPNVVEESARASVSVLGDILGSAMQNTQNLLQMPYGCGEQNMVLFAPNIYVLDYLNETQQLTPEIKSKAIGYLNTGYQRQLNYKHYDGSYSTFGERYGRNQGNTWLTAFVLKTFAQARAYIFIDEAHITQALIWLSQRQKDNGCFRSSGSLLNNAIKGGVEDEVTLSAYITIALLEIPLTVTHPVVRNALFCLESAWKTAQEGDHGSHVYTKALLAYAFALAGNQDKRKEVLKSLNEEAVKKDNSVHWERPQKPKAPVGHFYEPQAPSAEVEMTSYVLLAYLTAQPAPTSEDLTSATNIVKWITKQQNAQGGFSSTQDTVVALHALSKYGAATFTRTGKAAQVTIQSSGTFSSKFQVDNNNRLLLQQVSLPELPGEYSMKVTGEGCVYLQTSLKYNILPEKEEFPFALGVQTLPQTCDEPKAHTSFQISLSVSYTGSRSASNMAIVDVKMVSGFIPLKPTVKMLERSNHVSRTEVSSNHVLIYLDKVSNQTLSLFFTVLQDVPVRDLKPAIVKVYDYYETDEFAIAEYNAPCSKDLGNA
notes: alpha 2-macroglobulin (α2M), cDNA amplified from HepG2 total cDNA; Tetramer with an intact thiol ester by native-PAGE and heat fragmentation; also called α2M–RG; α2M–RFP–GFP–His; source: purified from conditioned medium (Ni–NTA); not shown: mCherry, C-terminal, kept; sfGFP, C-terminal, kept
B2: His–ALFA–3C–ESD (natural protein, human, UniProt P10768 1-282, looked up)
chain: MALKQISSNKCFGGLQKVFEHDSVELNCKMKFAVYLPPKAETGKCPALYWLSGLTCTEQNFISKSGYHQSASEHGLVVIAPDTSPRGCNIKGEDESWDFGTGAGFYVDATEDPWKTNYRMYSYVTEELPQLINANFPVDPQRMSIFGHSMGGHGALICALKNPGKYKSVSAFAPICNPVLCPWGKKAFSGYLGTDQSKWKAYDATHLVKSYPGSQLDILIDQGKDDQFLLDGQLLPDNFIAACTEKKIPVVFRLQEGYDHSYYFIATFITDHIRHHAKYLNA
notes: S-formylglutathione hydrolase (ESD), cDNA amplified from HEK293 total cDNA; A 3C protease site stands between the tags and the protein; Heat-stressed at 50 °C for 1 h together with the chaperone; also called recombinant ESD; source: E. coli BL21(DE3) LOBSTR, purified (HisPur Cobalt Resin)
B3: His–ALFA–3C–ALDH1A1 (natural protein, human, UniProt P00352 1-501, looked up)
chain: MSSSGTPDLPVLLTDLKIQYTKIFINNEWHDSVSGKKFPVFNPATEEELCQVEEGDKEDVDKAVKAARQAFQIGSPWRTMDASERGRLLYKLADLIERDRLLLATMESMNGGKLYSNAYLNDLAGCIKTLRYCAGWADKIQGRTIPIDGNFFTYTRHEPIGVCGQIIPWNFPLVMLIWKIGPALSCGNTVVVKPAEQTPLTALHVASLIKEAGFPPGVVNIVPGYGPTAGAAISSHMDIDKVAFTGSTEVGKLIKEAAGKSNLKRVTLELGGKSPCIVLADADLDNAVEFAHHGVFYHQGQCCIAASRIFVEESIYDEFVRRSVERAKKYILGNPLTPGVTQGPQIDKEQYDKILDLIESGKKEGAKLECGGGPWGNKGYFVQPTVFSNVTDEMRIAKEEIFGPVQQIMKFKSLDDVIKRANNTFYGLSAGVFTKDIDKAITISSALQAGTVWVNCYGVVSAQCPFGGFKMSGNGRELGEYGFHEYTEVKTVTVKISQKNS
notes: retinal dehydrogenase 1 (ALDH1A1), cDNA amplified from HEK293 total cDNA; A 3C protease site stands between the tags and the protein; Heat-stressed at 50 °C for 1 h together with the chaperone; also called recombinant ALDH1A1; source: E. coli BL21(DE3) LOBSTR, purified (HisPur Cobalt Resin)

Data set [1] deals with the molecule itself. As to the kind of experiment: native gel or EMSA; Native-PAGE of purified α2M–RG on NuPAGE 3 to 8% Tris–acetate gels, Tris–glycine running buffer pH 8.3, with or without methylamine; migrated to ~920 kDa.
The data set “α2M–mCherry–sfGFP–His” has as its target B1. Kind of data set: co-IP; purified α2M–RG (0.1 μM) mixed with purified substrate, pre-incubated at 50 °C (heat stress) or 4 °C for 1 h; anti-GFP (GFP-nanobody) sepharose 2 h at 4 °C, washed four times with PBS. As to conditions: both partners purified.

Broadly, the stoichiometry N is a count of units in the complex or per binding partner. With B1, the “stoichiometry N” value in data set [1] came to 4.

For the molecule B2, the binding result in the data set with α2M–mCherry–sfGFP–His is given as “binds”.

As for B3, the binding result with α2M–mCherry–sfGFP–His was “binds”.
